These results are taken from patent CN110577594A (UNIV NORTHWEST A&F, dated 2019).

In one assay the target is T1, 金黄色葡萄球菌表面蛋白A (Staphylococcus aureus, UniProt P38507 37-477).
T1 construct: whole, on cells; also called 葡萄球菌蛋白A; spA
Nature of the assay: direct ELISA on coated whole S. aureus (ATCC25923, ATCC29213, ATCC26111), HRP-conjugated nanobody.

A further assay deals with T2, 金黄色葡萄球菌肠毒素B (Staphylococcus aureus, UniProt P01552 28-266).
T2 sequence: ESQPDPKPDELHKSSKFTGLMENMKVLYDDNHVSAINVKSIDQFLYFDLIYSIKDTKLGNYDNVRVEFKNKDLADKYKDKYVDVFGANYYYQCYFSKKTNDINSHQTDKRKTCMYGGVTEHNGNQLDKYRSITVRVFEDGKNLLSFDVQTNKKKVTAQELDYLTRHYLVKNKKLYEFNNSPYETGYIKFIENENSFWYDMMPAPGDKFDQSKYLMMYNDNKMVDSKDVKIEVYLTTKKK
Nature of the assay: direct ELISA, antigen coated, HRP-conjugated nanobody. (In general: ELISA stands for enzyme-linked immunosorbent assay.)

B1: 金黄色葡萄球菌肠毒素A纳米抗体A21 (VHH)
VHH: ESGGGSVQAGGSLRLSCAASRNTYSYCSMGWYRQAPGKERELVSSIKSDDRTVYADSVKGRFTISRGNAKNTVHLLMNSLKPEDTAMYYCTFRCLERSGGETRYWGQGTQVTVS
notes: also called Clone A21; A21克隆
On to B1, for which the results for the binding result with 金黄色葡萄球菌表面蛋白A and with 金黄色葡萄球菌肠毒素B were “no binding (tested: 10 7 cfu/mL)” and “no binding (tested: 500ng/mL)”, respectively.
